Laboratory results as given in JP2002506420A.

What was measured:
[1] = target: FcRII (Fc gamma receptor II on K562 cells) (UniProt P12318); test: cell-based or functional assay
[2] = target: ヒトCD3抗原 (human CD3 antigen on the surface of human T cells) (human) (UniProt P07766); test: competition with 125I-labelled mouse M291 on IL-2-activated human T cells; affinity by the method of Berzofsky and Berkower
Sequence of UniProt P07766 (P07766 23-207): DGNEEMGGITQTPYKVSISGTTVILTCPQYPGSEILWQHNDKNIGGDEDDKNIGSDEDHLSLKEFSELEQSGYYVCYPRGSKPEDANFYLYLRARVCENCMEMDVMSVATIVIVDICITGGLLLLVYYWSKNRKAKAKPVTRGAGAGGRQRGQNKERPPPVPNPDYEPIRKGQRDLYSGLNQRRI

Sequence of UniProt P12318 (P12318 34-317): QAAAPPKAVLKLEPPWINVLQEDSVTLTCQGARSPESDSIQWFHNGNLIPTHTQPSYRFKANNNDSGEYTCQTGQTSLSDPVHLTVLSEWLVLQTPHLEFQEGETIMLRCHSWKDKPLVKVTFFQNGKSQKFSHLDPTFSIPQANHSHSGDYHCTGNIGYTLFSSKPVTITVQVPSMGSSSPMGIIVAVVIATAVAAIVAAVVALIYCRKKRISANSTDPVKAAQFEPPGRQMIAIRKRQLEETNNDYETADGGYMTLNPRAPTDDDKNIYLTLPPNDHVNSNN

K562細胞の特異的溶解 (reverse lysis, 51Cr release) [1]	Ka [2]	Substance
< 32%		キメラOKT3 IgG2 (chimeric OKT3, wild-type human IgG2) (from UniProt P01859 1-326) (antibody)
	1.6e+09 M⁻¹	ヒト化M291 IgG1 (humanized M291, human IgG1) (from UniProt P01857 1-330) (antibody)
